Source: patent US20230250188A1 (NATIONAL UNIVERSITY CORPORATION KOCHI UNIVERSITY, published 2023)
Each block holds one binder with its values, some of them ahead of it.

Legend:
[1] = molecular target: T1, human GPC1 on the surface of GPC1-positive cancer cells (TE8, TE14, BxPC-3) (human, UniProt P35052 24-530); assay: flow cytometry on TE8 cells, antibody titration, FITC anti-human IgG as secondary antibody
T1 construct: Endogenous GPC1 of human esophageal (TE8, TE14) and pancreatic (BxPC-3) cancer cell lines; also called GPC1 on the surface of the TE8 cell; Glypican-1
T1 sequence: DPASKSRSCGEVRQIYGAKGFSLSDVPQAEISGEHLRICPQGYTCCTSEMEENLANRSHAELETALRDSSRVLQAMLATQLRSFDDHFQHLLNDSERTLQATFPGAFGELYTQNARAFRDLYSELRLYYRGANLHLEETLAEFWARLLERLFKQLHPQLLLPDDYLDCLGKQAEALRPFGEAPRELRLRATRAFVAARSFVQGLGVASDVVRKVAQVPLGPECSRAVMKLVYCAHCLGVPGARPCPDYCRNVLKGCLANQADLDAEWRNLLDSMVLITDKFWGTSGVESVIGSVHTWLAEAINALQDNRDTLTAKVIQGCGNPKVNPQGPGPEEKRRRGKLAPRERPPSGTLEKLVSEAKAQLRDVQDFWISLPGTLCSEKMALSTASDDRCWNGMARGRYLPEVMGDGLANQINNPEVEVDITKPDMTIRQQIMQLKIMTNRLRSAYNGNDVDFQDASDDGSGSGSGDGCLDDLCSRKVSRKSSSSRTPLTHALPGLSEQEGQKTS
Description: (§1) The measurement was performed with FACS CantoII (BD) using the human/mouse chimeric anti-GPC1 antibody (clone 01a033) and the humanized anti-GPC1 antibody (clone T2) as primary antibodies at various concentrations and FITC labeled anti-human-IgG-FITC (Jackson Immuno Research, Catalog No. 109-095-098) as a secondary antibody, and the measurement data were analyzed using BD FACS Diva Software (BD).

[2] = molecular target: T2, recombinant human GPC1 protein (R&D Systems) (human, UniProt P35052 24-530); assay: SPR (Biacore 8K); antibody captured by anti-human IgG (Fc) on a CM5 chip, recombinant human GPC1 flowed over
T2 construct: Bought recombinant protein (R&D Systems); also called human GPC-1 antigen; Glypican-1
T2 sequence: T1 sequence
Description: The mouse anti-human-GPC1 monoclonal antibody was humanized (subclass: IgG4), and the obtained twenty clones (T1, T2, T3, T7, T8, T10, T11, T22, T26, T28, T29, T31, T32, T33, T34, T36, T43, T56, T57, T59) were prepared. An anti-human IgG (Fc) was immobilized on an sCM5 sensor chip (GE Healthcare) using Human antibody capture kit (GE Healthcare), and the affinity of each of these clones to a recombinant human GPC1 protein (R&D Systems) was measured using Biacore (registered trademark) 8K (GE Healthcare).

[3] = molecular target: T1, human GPC1 on the surface of …; assay: cell-based or functional assay
[4] = molecular target: T2, recombinant human GPC1 protein (R&D …); assay: SPR (Biacore 8K); antibody captured by anti-mouse-Fc antibody on the chip, human GPC-1 flowed over
Description: The binding affinity of the mouse antibody to human GPC-1 was measured through surface plasmon resonance technique (Biacore (registered trademark) 8K). An anti-mouse-Fc antibody was immobilized on a chip, and the mouse antibody (01a033) was flowed thereon and allowed to bind thereto. After washing, the human GPC-1 was flowed thereon, and the binding constant (Ka) and the dissociation constant (Kd) were measured.

[5] = molecular target: T3, MC38-mGPC1; assay: flow cytometry on MC38-mGPC1 cells (the sheet names clone 01a033 and mIgG2a; paragraph 327 names clone T2 with FITC anti-human IgG)
T3 construct: also called mGPC1-MC38; mouse GPC1 stably expressed on the mouse colorectal cancer cell line MC38
T3 mouse Glypican-1: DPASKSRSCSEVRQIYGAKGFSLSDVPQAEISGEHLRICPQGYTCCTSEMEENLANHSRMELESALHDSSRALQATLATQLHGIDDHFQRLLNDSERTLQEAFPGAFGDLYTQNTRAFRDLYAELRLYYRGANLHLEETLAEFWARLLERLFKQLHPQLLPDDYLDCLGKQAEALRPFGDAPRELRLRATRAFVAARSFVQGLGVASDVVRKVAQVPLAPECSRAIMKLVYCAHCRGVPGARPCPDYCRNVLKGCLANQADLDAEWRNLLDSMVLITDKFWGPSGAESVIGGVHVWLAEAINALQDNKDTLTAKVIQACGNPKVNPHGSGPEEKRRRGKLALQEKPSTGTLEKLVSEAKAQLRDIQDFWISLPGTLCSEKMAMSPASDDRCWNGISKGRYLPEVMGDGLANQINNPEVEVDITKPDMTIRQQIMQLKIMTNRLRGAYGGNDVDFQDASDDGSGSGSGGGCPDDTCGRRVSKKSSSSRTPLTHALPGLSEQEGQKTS

[6] = molecular target: T1, human GPC1 on the surface of …; assay: flow cytometry on BxPC3 cells, antibody titration, FITC anti-human IgG as secondary antibody
Description: as §1, with “In the FACS analysis using the antibody, cells of human pancreatic cancer cell line (BxPC-3) were used as GPC1-positive cells. The” for “The”, “the” for “the human/mouse chimeric anti-GPC1 antibody (clone 01a033) and the”, “T2) and the humanized GPC1-ADC (MMAE)” for “T2)”
The influence of conjugation of a payload with the humanized anti-GPC1 antibody (T2) on the antigen affinity was evaluated by analyzing the antibody concentration-dependent binding ability with FACS using GPC1 expression-positive BxPC3 cells.

[7] = molecular target: T1, human GPC1 on the surface of …; assay: cell-based or functional assay; remark: listed apart in the source
[8] = molecular target: T3, MC38-mGPC1; assay: cell-based or functional assay
[9] = molecular target: T1, human GPC1 on the surface of …; assay: cell-based or functional assay; remark: listed apart in the source

B1: human/mouse chimeric anti-GPC1 antibody (clone 01a033) (antibody, human IgG4 S228P, kappa, V domains shown)
VH: QVQLKQSGPELVKPGASVKISCKASGYSFTGYYMHWVKQSPEKSLEWIGEINPSTGDTTYNQKFKAKATLTVDKSSSTAYMQLKSLTSEDSAVYYCAREKRDDGVFAYWGQGTLVTVSS
VL: DIVMSQSPKSMSMSVGERVALSCKASENVGTYVSWYQQKPEQSPKLLIYGASNRYTGVPDRFTGSGSATDFTLTISSVQAEDLADYYCGQSYSYPLTFGAGTKLELKR
notes: also called chimeric mouse antibody (01a033); anti-GPC-1 chimeric antibody (01a033)
Kd [1]: 2380 pM | Kd [2]: 10200 pM | koff [2]: 0.00309 s⁻¹ | kon [2]: 302000 M⁻¹ s⁻¹ | IC50 of cytotoxicity on TE14 cells (ATP cell viability, 144 h) with MMAF-linked anti-human-IgG Fab as secondary antibody [3]: 71 pM

B2: anti-GPC-1 mouse monoclonal antibody 01a033 (antibody, V domains shown)
VH: B1 VH
VL: DIVMSQSPKSMSMSVGERVALSCKASENVGTYVSWYQQKPEQSPKLLIYGASNRYTGVPDRFTGSGSATDFTLTISSVQAEDLADYYCGQSYSYPLTFGAGTKLELK
notes: Mouse monoclonal antibody; also called mouse antibody (01a033); mouse anti-GPC1 antibody (clone 01a033)
Kd [4]: 31600 pM | koff [4]: 0.00388 s⁻¹ | kon [4]: 123000 M⁻¹ s⁻¹ | binding result [5]: binds

B6: humanized anti-GPC1 monoclonal antibody clone T57 (antibody, human IgG4 S228P, kappa, V domains shown)
VH: QVQLVQSGAEVKKPGASVKVSCKASGYTFTGYYMHWVRQAPGQGLEWMGEINPSTGDTTYNQKFKARVTMTRDTSTSTVYMELSSLRSEDTAVYYCAREKRDDGVFAYWGQGTLVTVSS
VL: EIVMTQSPSSLSASVGDRVTISCRTSQTIRHYLNWYQQKPGKAPKLLIYDASNLKTGVPSRFSGSGSGTSFTLTISSLQPDDFATYYCQQSYSTPRTFGQGTKVEIKR
notes: IgG
Kd [2]: 102000 pM | koff [2]: 0.0135 s⁻¹ | kon [2]: 132000 M⁻¹ s⁻¹ | IC50 of cytotoxicity on TE14 cells (ATP cell viability, 144 h) with MMAF-linked anti-human-IgG Fab as secondary antibody [3]: 45.9 pM

B8: humanized GPC1-ADC (MMAE) (antibody, V domains shown)
VH: B6 VH
VL: DIVMTQSPSFLSASVGDRVTITCRASQGISSYLVWYQQKPGKPPKLLIYSASVLQSGVPSRFSGRGYGTDFTLTISSLQPEDFATYYCQQSFSIPPVTFGGGTKVEIKR
modifications: MC-vc-PAB-MMAE linked by maleimide to cysteines of the reduced interchain disulfide bonds; DAR 4.0 for the whole antibody
notes: also called humanized anti-GPC1-ADC; humanized anti-GPC1-ADC (MMAE)
IC50 of growth inhibition of Detroit562 cells (in-vitro ADC assay, CellTiter-Glo, 144 h) [7]: 724 pM | IC50 of growth inhibition of FaDu cells (in-vitro ADC assay, CellTiter-Glo, 144 h) [7]: 300 pM | IC50 of growth inhibition of HeLa cells (in-vitro ADC assay, CellTiter-Glo, 144 h) [7]: 259 pM | IC50 of growth inhibition of MC38-mGPC1 cells (in-vitro ADC assay) [8]: 2290 pM | IC50 of growth inhibition of Ho-1-u-1 cells (in-vitro ADC assay, CellTiter-Glo, 144 h) [9]: 329 pM | IC50 of growth inhibition of KON cells (in-vitro ADC assay, CellTiter-Glo, 144 h) [9]: 153 pM | Kd [6]: 570 pM

Now from value to binder, other results behind:

Kd [1]: 1890 pM | Kd [2]: 5200 pM | koff [2]: 0.00125 s⁻¹ | kon [2]: 240000 M⁻¹ s⁻¹ | Kd [6]: 529 pM
B3: humanized anti-GPC1 antibody (clone T2) (antibody, human IgG4 S228P, kappa, V domains shown)
VH: B6 VH
VL: B8 VL
notes: IgG; also called humanized anti-GPC1 antibody (T2); unlabeled antibody
IC50 of cytotoxicity on TE14 cells (ATP cell viability, 144 h) with MMAF-linked anti-human-IgG Fab as secondary antibody [3]: 36.1 pM

Kd [2]: 6930 pM | koff [2]: 0.0018 s⁻¹ | kon [2]: 259000 M⁻¹ s⁻¹
B4: humanized anti-GPC1 monoclonal antibody clone T56 (antibody, human IgG4 S228P, kappa, V domains shown)
VH: B6 VH
VL: DIVMTQSPSTLSASVGDRVTIICRASQSIGPWLAWYQQKSGKAPKLLIYGASNLQSGVPSRFSGSGYGTDFTLTISSLQPEDFATYYCQQTSSAPFTFGPGTKVDIKR
notes: IgG
IC50 of cytotoxicity on TE14 cells (ATP cell viability, 144 h) with MMAF-linked anti-human-IgG Fab as secondary antibody [3]: 50.1 pM

Kd [2]: 9800 pM | koff [2]: 0.00227 s⁻¹ | kon [2]: 231000 M⁻¹ s⁻¹
B5: humanized anti-GPC1 monoclonal antibody clone T36 (antibody, human IgG4 S228P, kappa, V domains shown)
VH: B6 VH
VL: NIQMTQSPSSLSASVGDRVTITCQASQDISNYLNWYQQRPGKAPQLLIYGASNLERGVPSRFSGSGFGTDFTLTISSVQPEDFATYYCQQAKSYPLTFGGGTKVEIKR
notes: IgG
IC50 of cytotoxicity on TE14 cells (ATP cell viability, 144 h) with MMAF-linked anti-human-IgG Fab as secondary antibody [3]: 45.9 pM

Kd [2]: 5070 pM | koff [2]: 0.00118 s⁻¹ | kon [2]: 234000 M⁻¹ s⁻¹
B7: humanized anti-GPC1 monoclonal antibody clone T8 (antibody, human IgG4 S228P, kappa, V domains shown)
VH: B6 VH
VL: EIVMTQSPSSVSASVGDRVTITCRTSQSISSYLNWYQLRPGRAPKLLIYAASNLQSGVPSRFSGSGFGTDFTLTISSVQPEDFATYYCQQAKSYPLTFGGGTKVDIKR
notes: IgG
IC50 of cytotoxicity on TE14 cells (ATP cell viability, 144 h) with MMAF-linked anti-human-IgG Fab as secondary antibody [3]: 37.9 pM
